{
  "source": "patent US20220033520A1",
  "binders": {"B1": {"name": "anti-BACE1 hIgG4 antibody, Fc modification T1-IgG4 (M252Y/T307Q/N434Y) (antibody, part only; not given: anti-BACE1 variable domains, not shown: another chain or arm of the molecule)", "Fc": "PAPEFLGGPSVFLFPPKPKDTLYISRTPEVTCVVVDVSQEDPEVQFNWYVDGVEVHNAKTKPREEQFNSTYRVVSVLQVLHQDWLNGKEYKCKVSNKGLPSSIEKTISKAKGQPREPQVYTLPPSQEEMTKNQVSLTCLVKGFYPSDIAVEWESNGQPENNYKTTPPVLDSDGSFFLYSRLTVDKSRWQEGNVFSCSVMHEALHYHYTQKSLSLSLGK"}, "B2": {"name": "anti-BACE1 hIgG4 antibody, Fc modification T3 (M252Y/Q311I/N434Y) (antibody, part only; not given: Anti-BACE1 variable domains, not shown: another chain or arm of the molecule)", "Fc": "B1 Fc with Q78T, Q82I"}, "B3": {"name": "anti-BACE1 hIgG4 antibody, Fc modification T94 (M252Y/N286E/N434Y) (antibody, part only; not given: Anti-BACE1 variable domains, not shown: another chain or arm of the molecule)", "Fc": "B1 Fc with N57E, Q78T"}, "B4": {"name": "anti-BACE1 hIgG4 antibody, Fc modification Q6 (M252Y/M428L/N434Y/Y436I) (antibody, part only; not given: anti-BACE1 variable domains, not shown: another chain or arm of the molecule)", "Fc": "B1 Fc with Q78T, M199L, Y207I"}, "B5": {"name": "anti-BACE1 hIgG4 antibody, Fc modification Q95 (M252Y/T307Q/Q311A/N434Y) (antibody, part only; not given: Anti-BACE1 variable domains, not shown: another chain or arm of the molecule)", "Fc": "B1 Fc with Q82A"}, "B6": {"name": "anti-Abeta hIgG4 antibody, Fc modification D1 (M252Y/N434Y) (antibody, part only; not given: Anti-Abeta variable domains, not shown: another chain or arm of the molecule)", "Fc": "B1 Fc with Q78T"}, "B7": {"name": "anti-Abeta hIgG4 antibody, Fc modification T3 (M252Y/Q311I/N434Y) (antibody, part only; not given: anti-Abeta variable domains, not shown: another chain or arm of the molecule)", "Fc": "B1 Fc with Q78T, Q82I"}, "B8": {"name": "anti-Abeta hIgG4 antibody, Fc modification T94 (M252Y/N286E/N434Y) (antibody, part only; not given: anti-Abeta variable domains, not shown: another chain or arm of the molecule)", "Fc": "B1 Fc with N57E, Q78T"}, "B9": {"name": "anti-Abeta hIgG4 antibody, Fc modification Q4 (M252Y/Q311I/M428L/N434Y) (antibody, part only; not given: Anti-Abeta variable domains, not shown: another chain or arm of the molecule)", "Fc": "B1 Fc with Q78T, Q82I, M199L"}, "B10": {"name": "anti-Abeta hIgG4 antibody, Fc modification Q6 (M252Y/M428L/N434Y/Y436I) (antibody, part only; not given: anti-Abeta variable domains, not shown: another chain or arm of the molecule)", "Fc": "B1 Fc with Q78T, M199L, Y207I"}, "B11": {"name": "anti-Abeta hIgG4 antibody, Fc modification Q7 (M252Y/Q311A/N434Y/Y436I) (antibody, part only; not given: anti-Abeta variable domains, not shown: another chain or arm of the molecule)", "Fc": "B1 Fc with Q78T, Q82A, Y207I"}, "B12": {"name": "anti-Abeta hIgG4 antibody, Fc modification Q95 (M252Y/T307Q/Q311A/N434Y) (antibody, part only; not given: anti-Abeta variable domains, not shown: another chain or arm of the molecule)", "Fc": "B1 Fc with Q82A"}, "B13": {"name": "anti-BACE1 hIgG4 antibody, Fc modification Q7 (M252Y/Q311A/N434Y/Y436I) (antibody, part only; not given: anti-BACE1 variable domains, not shown: another chain or arm of the molecule)", "Fc": "B1 Fc with Q78T, Q82A, Y207I"}},
  "note": "Residue numbers refer to the chain shown, from its start. Names may count otherwise.",
  "data": [
    {"target": "human FcRn (FCGRT and beta-2 microglobulin) expressed on MDCK II cells (human) (UniProt P55899)", "sequence (P55899 24-365, chain 1 of 2)": "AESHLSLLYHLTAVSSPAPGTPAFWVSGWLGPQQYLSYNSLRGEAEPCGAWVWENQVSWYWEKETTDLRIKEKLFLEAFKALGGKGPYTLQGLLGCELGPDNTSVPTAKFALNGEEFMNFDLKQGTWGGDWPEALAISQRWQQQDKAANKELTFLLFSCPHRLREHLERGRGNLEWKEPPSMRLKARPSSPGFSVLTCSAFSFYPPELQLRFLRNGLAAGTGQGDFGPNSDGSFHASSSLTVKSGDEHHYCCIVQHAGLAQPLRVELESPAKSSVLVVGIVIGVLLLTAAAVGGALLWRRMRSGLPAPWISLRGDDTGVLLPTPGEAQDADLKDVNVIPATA", "sequence (P61769 21-119, chain 2 of 2, further chain)": "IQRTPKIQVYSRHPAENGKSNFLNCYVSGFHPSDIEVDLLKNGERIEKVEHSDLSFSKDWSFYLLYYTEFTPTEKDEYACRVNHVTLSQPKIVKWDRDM", "experiment": "cell-based or functional assay", "values": [
      {"binder": "B1", "Transcytosis Normalized to WT (normalized to WT)": 80}
    ]},
    {"target": "human FcRn complex (FCGRT and beta-2 microglobulin), recombinant, purified (human) (UniProt P55899)", "sequence (P55899 24-297 limits assumed, chain 1 of 2)": "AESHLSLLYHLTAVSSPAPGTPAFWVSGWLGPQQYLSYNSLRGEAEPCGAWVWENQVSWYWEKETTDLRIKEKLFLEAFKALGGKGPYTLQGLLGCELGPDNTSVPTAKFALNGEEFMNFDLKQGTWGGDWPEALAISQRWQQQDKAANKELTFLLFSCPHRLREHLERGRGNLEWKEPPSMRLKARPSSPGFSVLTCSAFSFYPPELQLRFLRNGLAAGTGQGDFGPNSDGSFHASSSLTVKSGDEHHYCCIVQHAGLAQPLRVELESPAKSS", "sequence (P61769 21-119 limits assumed, chain 2 of 2, further chain)": "as the sequence (P61769 21-119, chain 2 of 2, further chain) above", "experiment": "SPR, anti-human Fab capture, pH 6, steady state", "units": {"Kd": "nM"}, "values": [
      {"binder": "B2", "Kd": 7.4},
      {"binder": "B3", "Kd": 7.04},
      {"binder": "B4", "Kd": 6.3},
      {"binder": "B5", "Kd": 5.9},
      {"binder": "B6", "Kd": 13.1},
      {"binder": "B7", "Kd": 9.2},
      {"binder": "B8", "Kd": 8.8},
      {"binder": "B9", "Kd": 9.2},
      {"binder": "B10", "Kd": 8},
      {"binder": "B11", "Kd": 7.4},
      {"binder": "B12", "Kd": 6.5}
    ]},
    {"target": "human FcRn complex (FCGRT and beta-2 microglobulin), recombinant, purified (human) (UniProt P55899)", "experiment": "SPR, protein L capture, pH 6, kinetic", "units": {"Kd": "nM", "koff": "s⁻¹", "kon": "M⁻¹ s⁻¹"}, "values": [
      {"binder": "B1", "Kd": 10.5, "koff": 0.00897, "kon": 856000}
    ]},
    {"target": "cyno FcRn (cynomolgus monkey) (UniProt Q8SPV9)", "sequence (Q8SPV9 24-297 limits assumed, chain 1 of 2)": "as the sequence (P55899 24-297 limits assumed, chain 1 of 2) above, with N39D, E44Q, G99S, S189G, S190N, L217M, S269T counted along it", "sequence (Q8SPW0 21-119 limits assumed, chain 2 of 2, further chain)": "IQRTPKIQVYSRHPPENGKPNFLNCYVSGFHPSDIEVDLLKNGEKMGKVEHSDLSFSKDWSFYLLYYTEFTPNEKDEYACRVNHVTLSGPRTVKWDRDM", "experiment": "affinity for cyno FcRn at 25 C, pH 6.0", "units": {"Kd": "nM"}, "values": [
      {"binder": "B6", "Kd": 11.5},
      {"binder": "B8", "Kd": 10.1},
      {"binder": "B12", "Kd": 8.2}
    ]},
    {"target": "human FcRn complex (FCGRT and beta-2 microglobulin), recombinant, purified (human) (UniProt P55899)", "experiment": "SPR, protein L capture, pH 7.4, steady state", "units": {"Kd": "nM"}, "values": [
      {"binder": "B1", "Kd": 328}
    ]},
    {"target": "cyno FcRn (cynomolgus monkey) (UniProt Q8SPV9)", "experiment": "affinity for cyno FcRn at 25 C, pH 7.4", "units": {"Kd": "nM"}, "values": [
      {"binder": "B6", "Kd": 571},
      {"binder": "B8", "Kd": 369},
      {"binder": "B12", "Kd": 215}
    ]},
    {"target": "human FcRn complex (FCGRT and beta-2 microglobulin), recombinant, purified (human) (UniProt P55899)", "experiment": "SPR, anti-human Fab capture, pH 7.4, steady state", "units": {"Kd": "nM"}, "values": [
      {"binder": "B2", "Kd": 263},
      {"binder": "B3", "Kd": 305},
      {"binder": "B4", "Kd": 215},
      {"binder": "B13", "Kd": 230},
      {"binder": "B5", "Kd": 202},
      {"binder": "B6", "Kd": 1020},
      {"binder": "B7", "Kd": 334},
      {"binder": "B8", "Kd": 406},
      {"binder": "B9", "Kd": 486},
      {"binder": "B10", "Kd": 285},
      {"binder": "B11", "Kd": 273},
      {"binder": "B12", "Kd": 284}
    ]}
  ]
}
